Earlier results in patent US8901167B2, “Product and process for inhibition of biofilm development” (National Jewish Health, priority 2004, dated 2014).

Assays:
[1] = test system: P. aeruginosa biofilm; conditions: literature refs 39, 43
[2] = test system: extracellular DNA present in the CF airway; conditions: inhalation, CF patients; Fuchs et al. 1994

B1: lactoferrin: a major component of the secondary neutrophil granules (protein, UniProt P02788 20-710, looked up)
Lactotransferrin: GRRRSVQWCAVSQPEATKCFQWQRNMRKVRGPPVSCIKRDSPIQCIQAIAENRADAVTLDGGFIYEAGLAPYKLRPVAAEVYGTERQPRTHYYAVAVVKKGGSFQLNELQGLKSCHTGLRRTAGWNVPIGTLRPFLNWTGPPEPIEAAVARFFSASCVPGADKGQFPNLCRLCAGTGENKCAFSSQEPYFSYSGAFKCLRDGAGDVAFIRESTVFEDLSDEAERDEYELLCPDNTRKPVDKFKDCHLARVPSHAVVARSVNGKEDAIWNLLRQAQEKFGKDKSPKFQLFGSPSGQKDLLFKDSAIGFSRVPPRIDSGLYLGSGYFTAIQNLRKSEEEVAARRARVVWCAVGEQELRKCNQWSGLSEGSVTCSSASTTEDCIALVLKGEADAMSLDGGYVYTAGKCGLVPVLAENYKSQQSSDPDPNCVDRPVEGYLAVAVVRRSDTSLTWNSVKGKKSCHTAVDRTAGWNIPMGLLFNQTGSCKFDEYFSQSCAPGSDPRSNLCALCIGDEQGENKCVPNSNERYYGYTGAFRCLAENAGDVAFVKDVTVLQNTDGNNNEAWAKDLKLADFALLCLDGKRKPVTEARSCHLAMAPNHAVVSRMDKVERLKQVLLHQQAKFGRNGSDCPDKFCLFQSETKNLLFNDNTECLARLHGKTTYEKYLGPQYVAGITNLKKCSTSPLLEACEFLRK
Effect on P. aeruginosa biofilm formation [1]: prevent P. aeruginosa biofilm development

B2: rhDNase: purified rhDNase (Pulmozyme; Genentech), digests extracellular DNA present in the CF airway (protein, UniProt P24855 23-282, looked up)
Deoxyribonuclease-1: LKIAAFNIQTFGETKMSNATLVSYIVQILSRYDIALVQEVRDSHLTAVGKLLDNLNQDAPDTYHYVVSEPLGRNSYKERYLFVYRPDQVSAVDSYYYDDGCEPCGNDTFNREPAIVRFFSRFTEVREFAIVPLHAAPGDAVAEIDALYDVYLDVQEKWGLEDVMLMGDFNAGCSYVRPSQWSSIRLWTSPTFQWLIPDSADTTATPTHCAYDRIVVAGMLLRGAVVPDSALPFNFQAAYGLSDQLAQAISDHYPVEVMLK
Clinical effect on sputum viscosity and forced expiratory volume (FEV) [2]: clinically effective for diminishing sputum viscosity and stabilizing the forced expiratory volume
